Earlier results as cited in patent US20250341526A1, “NOVEL DYES” (Quantum-Si Incorporated, priority 2024, published 2025).
Positions count from the first letter of the chain named. Names and notes keep the numbering of the source.

B1: atClpS1 C7S, C84S, C112S: ClpS amino acid recognition protein, SEQ ID NO: 104 (protein)
chain: MIAEPISMQGEGDGEDGGTNRGTSVITRVKPKTKRPNLYRVLLLNDDYTPMEFVIHILERFFQKDREAATRIMLHVHQHGVGESGVFTYEVAETKVSQVMDFARQHQHPLQSVMEKK
B2: Synechococcus elongatus ClpS1: ClpS amino acid recognition protein, SEQ ID NO: 105 (protein, listed as Synechococcus elongatus)
chain: MAVETIQKPETTTKRKIAPRYRVLLHNDDFNPMEYVVMVLMQTVPSLTQPQAVDIMMEAHTNGTGLVITCDIEPAEFYCEQLKSHGLSSSIEPDD
B3: Synechococcus elongatus ClpS2: ClpS amino acid recognition protein, SEQ ID NO: 106 (protein, listed as Synechococcus elongatus)
chain: MSPQPDESVLSILGVPRPCVKKRSRNDAFVLTVLTCSLQAIAAPATAPGTTTTRVRQPYPHFRVIVLDDDVNTFQHVAECLLKYIPGMTGDRAWDLTNQVHYEGAATVWSGPQEQAELYHEQLRREGLTMAPLEAA
B4: Thermosynechococcus elongatus ClpS: ClpS amino acid recognition protein, SEQ ID NO: 107 (protein, listed as Thermosynechococcus elongatus)
chain: MPQERQQVTRKHYPNYKVIVLNDDFNTFQHVAACLMKYIPNMTSDRAWELTNQVHYEGQAIVWVGPQEQAELYHEQLLRAGLTMAPLEPE
B5: Escherichia coli ClpS: ClpS amino acid recognition protein, SEQ ID NO: 108 (protein, listed as Escherichia coli)
chain: MGKTNDWLDFDQLAEEKVRDALKPPSMYKVILVNDDYTPMEFVIDVLQKFFSYDVERATQLMLAVHYQGKAICGVFTAEVAETKVAMVNKYARENEHPLLCTLEKA
B6: Escherichia coli ClpS M40A: ClpS amino acid recognition protein, SEQ ID NO: 109 (protein, listed as Escherichia coli)
chain: B5 chain with M40A
B7: Plasmodium falciparum ClpS: ClpS amino acid recognition protein, SEQ ID NO: 110 (protein, listed as Plasmodium falciparum)
chain: MFKDLKPFFLCIILLLLLIYKCTHSYNIKNKNCPLNFMNSCVRINNVNKNTNISFPKELQKRPSLVYSQKNFNLEKIKKLRNVIKEIKKDNIKEADEHEKKEREKETSAWKVILYNDDIHNFTYVTDVIVKVVGQISKAKAHTITVEAHSTGQALILSTWKSKAEKYCQELQQNGLTVSIIHESQLKDKQKK
B8: PS380: ClpS amino acid recognition protein, SEQ ID NO: 13 (protein)
chain: MGDIYGESNPEEVSCIDSLSEEGNELILFNDNIHTFEYVIDCLVAICSLSYEQASNCAYIVDRKGLCTVKHGSYDELLIMYHALVEKDLKVEIR
B9: PS382: ClpS amino acid recognition protein, SEQ ID NO: 15 (protein)
chain: MSDSPVIKEIKKDNIKEADEHEKKEREKETSAWKVILYNDDIHNFTYVTDVIVKVVGQISKAKAHTITVEAHSTGQALILSTWKSKAEKYCQELQQNGLTVSIIHESQLKDKQKK
B10: PS388: ClpS amino acid recognition protein, SEQ ID NO: 16 (protein)
chain: MVTTLSADVYGMATAPTVAPERSNQVVRKTYPNYKVIVLNDDFNTFQHVAECLMKYIPGMSSDRAWDLTNQVHYEGQAIVWVGPQEPAELYHQQLRRAGLTMAPLEAA
B11: PS389: ClpS amino acid recognition protein, SEQ ID NO: 17 (protein)
chain: MLNSAAFKAASASPVIAPERSGQVTQKPYPTYKVIVLNDDFNTFQHVHDCLVKYIPGMTSDRAWQLTHQVHNDGQAIVWVGPQEQAELYHQQLSRAGLTMAPIEAA
B12: PS390: ClpS amino acid recognition protein, SEQ ID NO: 18 (protein)
chain: MLSIAAVTEAPSKGVQTADPKTVRKPYPNYKVIVLNDDFNTFQHVSSCLLKYIPGMSEARAWELTNQVHFEGLAVVWVGPQEQAELYYAQLKNAGLTMAPPEPA
B13: PS368: ClpS amino acid recognition protein, SEQ ID NO: 1 (protein)
chain: MASAPSTTLDKSTQVVKKTYPNYKVIVLNDDLNTFDHVANCLIKYIPDMTTDRAWELTNQVHYQGQAIVWTGPQEQAELYHQQLRREGLTMAPLEAA
B14: PS391: ClpS amino acid recognition protein, SEQ ID NO: 19 (protein)
chain: MGQTVEKPRVEGPGTGLGGSWRVIVRNDDHNTFDHVARTLARFIPGVSLERGHEIAKVIHTTGRAVVYTGHKEAAEHYWQQLKGAGLTMAPLEQG
B15: PS392: ClpS amino acid recognition protein, SEQ ID NO: 20 (protein)
chain: MSVEIIEKRSTVRKLAPRYRVLLHNDDFNPMEYVVQTLMATVPSLTQPQAVNVMMEAHTNGMGLVIVCALEHAEFYAETLNNHGLGSSIEPDD
B16: PS393: ClpS amino acid recognition protein, SEQ ID NO: 21 (protein)
chain: MSDEDGEDGDENAVGIATRTRTRTKKPTPYRVLLLNDDYTPMEFVVLVLQRFFRMSIEDATRVMLQVHQKGVGVCGVFTYEVAETKVSQVIDFARQNQHPLQCTLEKA
B17: PS394: ClpS amino acid recognition protein, SEQ ID NO: 22 (protein)
chain: MAERRDTGDDEGTGLGIATKTRSKTKKPTPYRVLMLNDDYTPMEFVVLCLQRFFRMNMEEATRVMLHVHQKGVGVCGVFSYEVAETKVGQVIDFARANQHPLQCTLEKA
B18: PS395: ClpS amino acid recognition protein, SEQ ID NO: 23 (protein)
chain: MTVSQSKTQGAPAAQSATELEYEGLWRVVVLNDPVNLMSYVVLVFKKVFGFDETTARKHMLEVHEQGRSVVWSGMREKAEAYAFTLQQWHLTTVLEQDEVR
B19: Saccharomyces cerevisiae GID10: amino acid recognition protein, SEQ ID NO: 125 (protein, listed as Saccharomyces cerevisiae)
chain: MTSLNIMGRKFILERAKRNDNIEEIYTSAYVSLPSSTDTRLPHFKAKEEDCDVYEEGTNLVGKNAKYTYRSLGRHLDFLRPGLRFGGSQSSKYTYYTVEVKIDTVNLPLYKDSRSLDPHVTGTFTIKNLTPVLDKVVTLFEGYVINYNQFPLCSLHWPAEETLDPYMAQRESDCSHWKRFGHFGSDNWSLTERNFGQYNHESAEFMNQRYIYLKWKERFLLDDEEQENQMLDDNHHLEGASFEGFYYVCLDQLTGSVEGYYYHPACELFQKLELVPTNCDALNTYSSGFEIA
B20: PS501: amino acid recognition protein, SEQ ID NO: 129 (protein, listed as Amanita thiersii)
chain: MICGQIIGKGESCFRCRDCGLDESCVMCSQCFHATDHINHNVSFFVSQQPGGCCDCGDEEAWKKPMNCPYHPP
B21: PS502: amino acid recognition protein, SEQ ID NO: 130 (protein, listed as Helobdella robusta)
chain: MVCLKVFKLGEPTYSCRSVTCGMDPTCVLCVDCFQNSSHKLHKYKMSTSGGGGYCDCGDLEAWKADPLCDLHKL
B22: PS503: amino acid recognition protein, SEQ ID NO: 131 (protein, listed as Hydra vulgaris)
chain: MFCGRLFKVGDPTYTCKDCAADPTCVFCHDCFHQSVHTKHKYKLFASQGRGGYCDCGDKEAWTNDPACNKHKE
B23: PS504: amino acid recognition protein, SEQ ID NO: 132 (protein, listed as Galleria mellonella)
chain: MLCGKVFKQGEPAYSCRECGMDNTCVLCVECFKVSPHRHHKYKMGQSGGGGCCDCGDTEAWKRDPFCERHAK
B24: PS505: amino acid recognition protein, SEQ ID NO: 133 (protein, listed as Brachionus plicatilis)
chain: MVCGRVFKSGEPSYFCRECGTDPTCVLCSICFRHSKHRYHKYVMMTSGGGGYCDCGDPEAWKSDPCCELHMP
B25: PS506: amino acid recognition protein, SEQ ID NO: 134 (protein, listed as Capitella teleta)
chain: MLCGKVFKMGELTYSCRDCGTDPTCVLCMDCFQHSAHKKHRYKMAASGGGGYCDCGDREAWKAEPFCDVHKR
B26: PS507: amino acid recognition protein, SEQ ID NO: 135 (protein, listed as Sparassis crispa)
chain: MPCGHIFKKGESCFRCKDCALDDSCVLCSKCFEATDHANHNVSFFIAQQSGGCCDCGDIEAWLVPIDCPFHPV
B27: PS508: amino acid recognition protein, SEQ ID NO: 136 (protein)
chain: MLCGRVFKEGETVYSCRDCAIDPTCVLCIECFQKSVHKSHRYKMHASAGGGFCDCGDLEAWKTGPCCSQHDP
modifications: Anabarilius graham

system: amino acid at a terminal position of a polypeptide; settings: Table 1, ClpS proteins; amino acid at terminal position; inferred from literature and/or demonstrated by the inventors; cited from earlier work

**Q.** For B1, which “Binding Pref.” value is on record?
**A.** Its value is “F, W, Y, L”.

**Q.** Which “Binding Pref.” value does the source give for B2 here?
**A.** The value was “F, W, Y”.

**Q.** For B3, which “Binding Pref.” value is on record?
**A.** Its value is “F, W, Y, L”.

**Q.** For B4, which “Binding Pref.” value is on record?
**A.** The value was “F, W, Y, L”.

**Q.** For B5, which “Binding Pref.” value is on record?
**A.** Its value is “F, W, Y, L”.

**Q.** For B6, which “Binding Pref.” value is on record?
**A.** Its value is “F, W, Y, L”.

**Q.** For B7, which “Binding Pref.” value is on record?
**A.** Its value is “F, W, Y, L”.

**Q.** Which “Binding Pref.” value does the source give for B8 here?
**A.** The value was “F, W”.

**Q.** Which “Binding Pref.” value does the source give for B9 here?
**A.** The value was “F, Y, W, L”.

**Q.** With B10 as the molecule, how does the “Binding Pref.” value read?
**A.** The value was “F, Y, L”.

**Q.** For B11, which “Binding Pref.” value is on record?
**A.** Its value is “F, Y, L”.

**Q.** Which “Binding Pref.” value does the source give for B12 here?
**A.** The value was “F, Y, L”.

**Q.** Which “Binding Pref.” value does the source give for B13 here?
**A.** Its value is “F, Y, W, L”.

**Q.** For B14, which “Binding Pref.” value is on record?
**A.** Its value is “F, Y, W, L”.

**Q.** Which “Binding Pref.” value does the source give for B15 here?
**A.** Its value is “F, Y, W”.

**Q.** With B16 as the molecule, how does the “Binding Pref.” value read?
**A.** Its value is “F, Y, W, L”.

**Q.** For B17, which “Binding Pref.” value is on record?
**A.** Its value is “F, Y, W, L”.

**Q.** With B18 as the molecule, how does the “Binding Pref.” value read?
**A.** Its value is “F, Y, W, L”.

same assay, conditions: Table 2; amino acid at terminal position (phosphotyrosine also internal); inferred from literature and/or demonstrated by the inventors; cited from earlier work

**Q.** With B19 as the molecule, how does the “Binding Pref.” value read?
**A.** Its value is “P, M, V”.

**Q.** With B20 as the molecule, how does the “Binding Pref.” value read?
**A.** The value was “K, R, H”.

**Q.** Which “Binding Pref.” value does the source give for B21 here?
**A.** The value was “K, R, H”.

**Q.** Which “Binding Pref.” value does the source give for B22 here?
**A.** Its value is “K, R, H”.

**Q.** Which “Binding Pref.” value does the source give for B23 here?
**A.** The value was “K, R, H”.

**Q.** For B24, which “Binding Pref.” value is on record?
**A.** The value was “K, R, H”.

**Q.** With B25 as the molecule, how does the “Binding Pref.” value read?
**A.** Its value is “K, R, H”.

**Q.** With B26 as the molecule, how does the “Binding Pref.” value read?
**A.** The value was “K, R, H”.

**Q.** With B27 as the molecule, how does the “Binding Pref.” value read?
**A.** The value was “K, R, H”.
